Measured values: article PMC9750192
Several values for one entry are separate records, joined by “and”; a condition that tells them apart may be missing. Equal entries are not always repeated. Where two headings read alike, the source gives them in different places.

Assays:
[1] = target: GMPCPP-stabilized HeLa cell microtubules (human (endogenous in HeLa)) (UniProt P68363); assay: cryo-EM structure
[2] = target: GMPCPP-stabilized HeLa cell microtubules (human (endogenous in HeLa)) (UniProt P68363); assay: cryo-EM structure; remark: listed apart in the source
[3] = target: Taxol-stabilized microtubules enriched in tyrosinated HeLa tubulin (human (endogenous in HeLa) | not stated) (UniProt P68363); assay: single-molecule TIRF microscopy
[4] = target: Taxol-stabilized microtubules enriched in detyrosinated HeLa tubulin (human (endogenous in HeLa) | not stated) (UniProt P68363); assay: single-molecule TIRF microscopy
[5] = target: Taxol-stabilized microtubules enriched in tyrosinated HeLa tubulin (human (endogenous in HeLa) | not stated) (UniProt P68363); assay: single-molecule TIRF microscopy; remark: listed apart in the source
[6] = target: Taxol-stabilized microtubules enriched in tyrosinated HeLa tubulin (human (endogenous in HeLa) | not stated) (UniProt P68363); assay: single-molecule TIRF microscopy; remark: listed apart in the source
[7] = target: Taxol-stabilized microtubules enriched in tyrosinated HeLa tubulin (human (endogenous in HeLa) | not stated) (UniProt P68363); assay: single-molecule TIRF microscopy; remark: listed apart in the source
[8] = target: Taxol-stabilized microtubules enriched in detyrosinated HeLa tubulin (human (endogenous in HeLa) | not stated) (UniProt P68363); assay: single-molecule TIRF microscopy; remark: listed apart in the source
[9] = target: Taxol-stabilized microtubules enriched in tyrosinated HeLa tubulin (human (endogenous in HeLa) | not stated) (UniProt P68363); assay: single-molecule TIRF microscopy; remark: listed apart in the source

Taxol-stabilized microtubules enriched in tyrosinated HeLa tubulin (human (endogenous in HeLa) | not stated), sequence (P68363 whole entry, chain 1 of 2): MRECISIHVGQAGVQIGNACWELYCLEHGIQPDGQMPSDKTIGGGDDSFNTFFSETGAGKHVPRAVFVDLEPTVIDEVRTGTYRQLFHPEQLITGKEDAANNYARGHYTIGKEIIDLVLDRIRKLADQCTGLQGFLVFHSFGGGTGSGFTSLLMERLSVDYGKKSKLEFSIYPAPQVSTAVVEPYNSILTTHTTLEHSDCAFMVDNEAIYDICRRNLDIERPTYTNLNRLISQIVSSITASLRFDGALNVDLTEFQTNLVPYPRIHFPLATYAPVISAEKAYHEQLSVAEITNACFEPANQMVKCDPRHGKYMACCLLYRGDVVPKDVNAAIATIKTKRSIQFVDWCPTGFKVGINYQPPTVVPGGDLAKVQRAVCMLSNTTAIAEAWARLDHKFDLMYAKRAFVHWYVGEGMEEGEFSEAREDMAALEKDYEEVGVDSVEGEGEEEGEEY
Taxol-stabilized microtubules enriched in tyrosinated HeLa tubulin (human (endogenous in HeLa) | not stated), sequence (P07437 whole entry, chain 2 of 2, further chain): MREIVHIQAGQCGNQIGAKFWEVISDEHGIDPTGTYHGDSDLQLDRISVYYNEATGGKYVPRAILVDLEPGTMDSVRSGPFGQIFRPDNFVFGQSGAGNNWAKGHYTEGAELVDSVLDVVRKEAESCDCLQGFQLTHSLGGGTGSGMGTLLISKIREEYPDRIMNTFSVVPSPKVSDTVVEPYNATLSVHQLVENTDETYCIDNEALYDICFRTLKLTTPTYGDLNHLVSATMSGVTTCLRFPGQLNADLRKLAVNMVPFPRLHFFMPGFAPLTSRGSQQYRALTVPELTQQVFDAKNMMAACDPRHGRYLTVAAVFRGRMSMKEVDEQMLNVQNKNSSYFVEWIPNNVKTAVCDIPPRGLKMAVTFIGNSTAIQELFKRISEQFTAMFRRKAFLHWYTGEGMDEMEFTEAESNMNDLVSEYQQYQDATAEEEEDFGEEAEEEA
Taxol-stabilized microtubules enriched in detyrosinated HeLa tubulin (human (endogenous in HeLa) | not stated), sequence (P68363 1-450, chain 1 of 2): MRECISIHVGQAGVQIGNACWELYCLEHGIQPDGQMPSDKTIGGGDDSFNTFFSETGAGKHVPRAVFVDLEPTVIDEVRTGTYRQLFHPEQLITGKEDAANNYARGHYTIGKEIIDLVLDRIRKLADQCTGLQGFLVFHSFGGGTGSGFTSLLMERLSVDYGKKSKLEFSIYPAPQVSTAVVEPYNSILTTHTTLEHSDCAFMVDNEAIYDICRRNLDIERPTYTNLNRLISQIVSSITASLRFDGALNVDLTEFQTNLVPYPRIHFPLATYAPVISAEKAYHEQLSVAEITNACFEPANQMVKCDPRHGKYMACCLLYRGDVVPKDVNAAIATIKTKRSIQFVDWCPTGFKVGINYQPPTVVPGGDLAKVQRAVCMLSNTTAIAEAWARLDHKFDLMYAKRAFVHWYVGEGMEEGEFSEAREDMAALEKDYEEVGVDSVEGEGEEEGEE
Taxol-stabilized microtubules enriched in detyrosinated HeLa tubulin (human (endogenous in HeLa) | not stated), sequence (P07437 whole entry, chain 2 of 2, further chain): as the sequence (P07437 whole entry, chain 2 of 2, further chain) above
full-length sfGFP-VASH1–SVBP complex, sequence (Q7L8A9 whole entry): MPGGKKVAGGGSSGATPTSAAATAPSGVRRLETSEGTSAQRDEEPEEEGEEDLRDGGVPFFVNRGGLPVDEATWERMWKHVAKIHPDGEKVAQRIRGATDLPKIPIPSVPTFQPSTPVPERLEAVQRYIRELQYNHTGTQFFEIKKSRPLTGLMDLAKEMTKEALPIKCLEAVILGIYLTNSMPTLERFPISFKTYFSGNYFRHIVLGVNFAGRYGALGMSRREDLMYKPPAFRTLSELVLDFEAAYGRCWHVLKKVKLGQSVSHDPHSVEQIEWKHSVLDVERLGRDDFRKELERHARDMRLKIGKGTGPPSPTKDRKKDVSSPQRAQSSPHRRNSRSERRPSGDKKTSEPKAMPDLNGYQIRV
full-length sfGFP-VASH1–SVBP complex, sequence (Q8N300 whole entry): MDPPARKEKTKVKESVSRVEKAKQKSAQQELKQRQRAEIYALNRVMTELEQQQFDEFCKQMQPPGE
full-length sfGFP-VASH2–SVBP complex, sequence (Q86V25 whole entry): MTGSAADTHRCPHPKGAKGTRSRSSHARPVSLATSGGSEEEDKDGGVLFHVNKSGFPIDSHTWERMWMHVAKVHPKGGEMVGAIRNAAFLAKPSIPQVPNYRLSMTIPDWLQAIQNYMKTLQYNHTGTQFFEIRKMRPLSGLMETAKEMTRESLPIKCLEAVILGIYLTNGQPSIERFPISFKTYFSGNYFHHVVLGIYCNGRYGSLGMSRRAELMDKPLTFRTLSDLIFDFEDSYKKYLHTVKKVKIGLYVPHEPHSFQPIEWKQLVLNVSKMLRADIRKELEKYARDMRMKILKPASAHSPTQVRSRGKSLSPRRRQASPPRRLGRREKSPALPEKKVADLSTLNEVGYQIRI
full-length sfGFP-VASH2–SVBP complex, sequence (Q8N300 whole entry): as the sequence (Q8N300 whole entry) above

Row | Substance | binding frequency (min^−1.nM^−1.µm^-1) [3] | residence time τ [4] | binding frequency (min-1.nM^−1.µm^−1) [5] | binding frequency (min^−1.nM^−1.µm^-1) [5] | mean covering of the microtubule surface during a 45 s movie [5] | residence time τ [5] | residence time τ [6] | residence time τ [7] | also measured
1 | catalytically dead VASH2(Cys158Ala)–SVBP complex for cryo-EM (from UniProt Q86V25 1-355; Q8N300 1-66) | – | – | – | – | – | – | – | – | occupancy of the binding sites on the microtubule [1]: 50.9%; occupancy of the binding sites on the microtubule [2]: 40%
2 | catalytically dead full-length sfGFP-VASH1(C169A)–SVBP complex (from UniProt Q7L8A9-1 1-365; Q8N300 1-66) | 86.4 | 0.6 s | 80.4 | 132 | 82% | 1 s and 1.2 s | – | – | –
3 | catalytically dead full-length sfGFP-VASH2(C158A)–SVBP complex (from UniProt Q86V25-1 1-355; Q8N300 1-66) | – | – | – | 13.9 | 28% | > 14.6 s | – | – | –
4 | dead VASH1 core domain (sfGFP-VASH1 57–307 C169A) in complex with SVBP (from UniProt Q7L8A9-1 57-307; Q8N300 1-66) | – | – | 70.7 | – | – | – | – | – | –
5 | full-length sfGFP-VASH1–SVBP complex (from UniProt Q7L8A9-1 1-365; Q8N300 1-66) | 51.6 | 0.5 s | – | 80.8 | 75% | 0.5 s and 0.8 s | 1.2 s | 0.2 s | binding frequency (min^−1.nM^−1.µm^-1) [7]: 3; residence time τ [3]: 0.8 s
6 | full-length sfGFP-VASH2–SVBP complex (from UniProt Q86V25-1 1-355; Q8N300 1-66) | – | – | – | 13 | 25% | > 11 s | > 12.9 s | 3.9 s | residence time τ [8]: 0.6 s; residence time τ [9]: 0.9 s
